From paper PMC8225859

Target: Low-density lipoprotein receptor-related protein 1 (LRP1) (mouse (endogenous in gonadal fat tissue))

B1: Apolipoprotein A4 (APOA4) in gonadal fat tissue of WT mice injected with recombinant mouse APOA4 (natural protein)
chain: EVTSDQVANVVWDYFTQLSNNAKEAVEQFQKTDVTQQLSTLFQDKLGDASTYADGVHNKLVPFVVQLSGHLAQETERVKEEIKKELEDLRDRMMPHANKVTQTFGENMQKLQEHLKPYAVDLQDQINTQTQEMKLQLTPYIQRMQTTIKENVDNLHTSMMPLATNLKDKFNRNMEELKGHLTPRANELKATIDQNLEDLRRSLAPLTVGVQEKLNHQMEGLAFQMKKNAEELQTKVSAKIDQLQKNLAPLVEDVQSKVKGNTEGLQKSLEDLNRQLEQQVEEFRRTVEPMGEMFNKALVQQLEQFRQQLGPNSGEVESHLSFLEKSLREKVNSFMSTLEKKGSPDQPQALPLPEQAQEQAQEQAQEQVQPKPLES
glucose uptake in 3T3-L1 mature adipocytes treated with 0, 0.5, 1, 2 uM r-m-APOA4 for 1 h; percent increase against buffer (~22% at 0.5 uM, ~34% at 1 uM, ~44% at 2 uM): 44%
